In patent US20230357420A1 (VILLARIS THERAPEUTICS, published 2023):
Read-outs that look alike come from different tables or passages of the source.

Assays:
Rhesus CD122 [1] = biological target: T1, Rhesus CD122 (rhesus monkey, UniProt Q38J85 27-551 (cynomolgus entry)); assay: flow cytometry (FACS) on rhIL15Rβ-transfected CHO-K1 cells, anti-human IgG-FITC, GeoMFI
T1 construct: also called rhCD122 on cells
T1 sequence: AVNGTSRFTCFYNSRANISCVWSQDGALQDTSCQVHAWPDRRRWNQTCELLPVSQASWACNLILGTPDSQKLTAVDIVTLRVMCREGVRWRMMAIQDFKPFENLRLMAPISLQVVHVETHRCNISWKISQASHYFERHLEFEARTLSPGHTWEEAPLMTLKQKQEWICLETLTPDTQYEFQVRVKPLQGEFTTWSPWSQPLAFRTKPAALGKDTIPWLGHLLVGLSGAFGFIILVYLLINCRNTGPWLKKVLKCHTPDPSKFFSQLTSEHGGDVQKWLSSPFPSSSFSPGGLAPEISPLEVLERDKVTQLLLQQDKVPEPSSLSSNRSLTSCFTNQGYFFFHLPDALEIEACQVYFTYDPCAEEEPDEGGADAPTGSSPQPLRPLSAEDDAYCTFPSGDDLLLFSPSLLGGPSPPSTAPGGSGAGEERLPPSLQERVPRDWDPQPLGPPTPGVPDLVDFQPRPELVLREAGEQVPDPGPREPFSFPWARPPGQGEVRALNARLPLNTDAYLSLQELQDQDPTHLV
Procedure: (§1) Purified IgGs were tested in FACs for binding to human and rhesus CD122 expressed on CHO-K1 stable cell lines and CHO-K1 wild-type cells. The IgG samples were titrated in three-fold serial dilutions starting at 500 nM to […]. Binding of IgGs was detected with a mouse anti-human IgG conjugated to FITC. Results were analyzed by examining the Mean Fluorescence Intensity (MFI) of 10000 cells per sample in the BL-1 channel detector of a flow cytometer (AttuneTM NxT Acoustic Focusing Cytometer, Invitrogen/ ThermoFisher Scientific).

Rhesus CD122 [2] = biological target: T1, Rhesus CD122; assay: as above; remark: listed apart in the source
Procedure: as §1

Human CD122 [3] = biological target: T2, Human CD122 (human, UniProt P14784 27-551); assay: flow cytometry (FACS) on huIL15Rβ-transfected CHO-K1 cells, anti-human IgG-FITC, GeoMFI
T2 construct: also called hCD122; IL2RB
T2 sequence: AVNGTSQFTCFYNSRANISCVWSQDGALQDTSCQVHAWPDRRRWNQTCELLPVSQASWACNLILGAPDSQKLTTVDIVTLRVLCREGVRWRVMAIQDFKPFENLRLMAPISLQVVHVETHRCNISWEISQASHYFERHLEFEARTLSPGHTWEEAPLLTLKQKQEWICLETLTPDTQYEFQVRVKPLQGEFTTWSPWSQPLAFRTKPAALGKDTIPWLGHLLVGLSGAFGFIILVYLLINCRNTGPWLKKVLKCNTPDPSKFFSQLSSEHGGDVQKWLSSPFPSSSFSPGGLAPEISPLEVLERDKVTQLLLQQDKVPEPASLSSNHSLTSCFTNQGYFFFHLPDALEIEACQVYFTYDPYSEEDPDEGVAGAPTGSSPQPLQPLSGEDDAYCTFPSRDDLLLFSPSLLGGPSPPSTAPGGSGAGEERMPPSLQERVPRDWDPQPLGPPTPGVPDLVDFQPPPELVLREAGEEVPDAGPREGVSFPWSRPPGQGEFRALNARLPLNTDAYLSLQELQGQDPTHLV
Procedure: as §1

Rhesus CD122 [4] = biological target: T1, Rhesus CD122; assay: flow cytometry (FACS) on rhIL15Rβ-transfected CHO-K1 cells, anti-human IgG-FITC, GeoMFI; remark: listed apart in the source
Procedure: as §1

[5] = biological target: T3, Human CD122 human Fc tagged recombinant protein (human, UniProt P14784 27-240); assay: Alphascreen epitope competition: unlabelled VillMAb-1 at log10 -1.9 to 2 nM against VillMab-1 binding to human CD122-Fc (self-competition); CPS (crosstalk-corrected)
T3 construct: also called human CD122-Fc; not shown: human Fc tag
T3 sequence: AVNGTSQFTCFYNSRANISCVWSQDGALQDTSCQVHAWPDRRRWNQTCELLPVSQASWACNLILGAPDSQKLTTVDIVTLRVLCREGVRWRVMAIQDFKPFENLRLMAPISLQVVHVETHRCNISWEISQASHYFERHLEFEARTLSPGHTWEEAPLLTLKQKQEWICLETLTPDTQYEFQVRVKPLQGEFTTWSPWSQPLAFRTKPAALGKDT

Human CD122 [6] = biological target: T2, Human CD122; assay: flow cytometry (FACS) on huIL15Rβ-transfected CHO-K1 cells, anti-human IgG-FITC, GeoMFI; remark: listed apart in the source
Procedure: as §1

CD20 = biological target: T4, CD20 (human, UniProt P11836 1-297); assay: Retrogenix cell microarray: fixed HEK293 cells reverse-transfected with the target, AF647 anti-human IgG detection
T4 construct: whole, on cells; Control target; also called MS4A1
T4 sequence (looked up): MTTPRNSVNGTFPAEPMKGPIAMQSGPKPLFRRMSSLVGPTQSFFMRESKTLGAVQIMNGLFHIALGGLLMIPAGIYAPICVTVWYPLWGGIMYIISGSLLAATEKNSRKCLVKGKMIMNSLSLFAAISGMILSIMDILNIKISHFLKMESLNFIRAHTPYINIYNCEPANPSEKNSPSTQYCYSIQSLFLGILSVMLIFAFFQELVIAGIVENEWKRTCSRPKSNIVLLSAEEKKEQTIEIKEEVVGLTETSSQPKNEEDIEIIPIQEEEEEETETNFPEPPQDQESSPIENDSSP
Procedure: (§2) Slides were analyzed as above.
(§3) The plasmid samples for control and potential target receptors were then re-arrayed onto new chips for repeat analyses in duplicate. […] Control experiments using the same cells but no primary antibody (FIG. .

EGFR = biological target: T5, EGFR (human, UniProt P00533 25-1210); assay: as above
T5 construct: whole, on cells; Control target on the confirmation array
Procedure: as §2, §3

Rhesus CD122 [7] = biological target: T1, Rhesus CD122; assay: flow cytometry (FACS) on rhIL15Rβ-transfected CHO-K1 cells, anti-human IgG-FITC, GeoMFI; remark: listed apart in the source
Procedure: as §1

Human CD122 [8] = biological target: T2, Human CD122; assay: flow cytometry (FACS) on huIL15Rβ-transfected CHO-K1 cells, anti-human IgG-FITC, GeoMFI; remark: listed apart in the source
Procedure: as §1

- EC50 (read off the curve) (Rhesus CD122 [1]): ~0.6 nM
- EC50 (read off the curve) (Rhesus CD122 [2]): ~0.6 nM
- EC50 (read off the curve) (Human CD122 [3]): ~0.9 nM
- EC50 (read off the curve) (Rhesus CD122 [4]): ~0.7 nM
- IC50 (read off the curve) [5]: ~2 nM
- EC50 (read off the curve) (Human CD122 [6]): ~0.9 nM
- binding result (CD20): no binding (tested: 5 µg/ml)
- binding result (EGFR): no binding (tested: 5 µg/ml)
- EC50 (read off the curve) (Rhesus CD122 [7]): ~0.6 nM
- EC50 (read off the curve) (Human CD122 [8]): ~0.9 nM
B1: IgG1-MIKβ1 (humanized) (antibody, V domains shown)
VH: EVQLLESGGGLVQPGGSLRLSCAASGFSVTSYGVHWIRQAPGKGLEWLGVIWSGGSTDYNAAFISRLTISKDNSKNTVYFQMNSLQAEDTAIYYCARAGDYNYDGFAYWGQGTLVTVSS
VL: DIVLTQSPSSLSASVGDRVTITCSGSSSVSFMYWYQQRPGKAPRLLIYDTSNLASGVPSRFSGSGSGTSYTFTISSLQPEDIATYYCQQWSTYPLTFGQGTKVEVK
notes: also called VillMab-1; VillMAB-1
